Molecular target: T1, Recombinant human FcγRI (human, UniProt P12314 16-292, limits assumed)
T1 construct: not shown: His tag (captured on anti-tetra-His antibody)
Assay: Biacore SPR; FcγRI captured on anti-tetra-His, antibody 100 nM

T1 sequence (P12314 16-292 limits assumed): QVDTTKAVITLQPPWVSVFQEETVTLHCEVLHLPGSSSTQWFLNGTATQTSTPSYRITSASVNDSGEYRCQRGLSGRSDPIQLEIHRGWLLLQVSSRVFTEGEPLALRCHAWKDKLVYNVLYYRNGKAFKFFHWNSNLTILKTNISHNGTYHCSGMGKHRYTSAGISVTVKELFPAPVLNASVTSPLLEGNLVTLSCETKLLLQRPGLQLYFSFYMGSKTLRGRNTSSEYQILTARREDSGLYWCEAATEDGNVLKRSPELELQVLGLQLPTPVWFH

binding result | Binder
binds | Anti-αβTCR clone H66 S298N/Y300S antibody (antibody, human IgG1, kappa, Full-length human IgG1; also called SY; S298N/Y300S H66) heavy: not shown light: EIVLTQSPATLSLSPGERATLSCSATSSVSYMHWYQQKPGQAPRRLIYDTSKLASGVPARFSGSGSGTSYTLTISSLEPEDFAVYYCQQWSSNPLTFGGGTKVEIKRTVAAPSVFIFPPSDEQLKSGTASVVCLLNNFYPREAKVQWKVDNALQSGNSQESVTEQDSKDSTYSLSSTLTLSKADYEKHKVYACEVTHQGLSSPVTKSFNRGEC
binds | Anti-αβTCR clone H66 N297Q/S298N/Y300S antibody (antibody, human IgG1, kappa, Full-length human IgG1; also called NSY) heavy: EVQLLQSGGGLVQPGGSLRLSCAASGYKFTSYVMHWVRQAPGKGLEWVGYINPYNDVTKYNEKFKGRFTLSRDNSKNTLYLQMNSLRAEDTAVYYCARGSYYDYDGFVYWGQGTLVTVSSASTKGPSVFPLAPSSKSTSGGTAALGCLVKDYFPEPVTVSWNSGALTSGVHTFPAVLQSSGLYSLSSVVTVPSSSLGTQTYICNVNHKPSNTKVDKKVEPKSCDKTHTCPPCPAPELLGGPSVFLFPPKPKDTLMISRTPEVTCVVVDVSHEDPEVKFNWYVDGVEVHNAKTKPREEQYQNTSRVVSVLTVLHQDWLNGKEYKCKVSNKALPAPIEKTISKAKGQPREPQVYTLPPSRDELTKNQVSLTCLVKGFYPSDIAVEWESNGQPENNYKTTPPVLDSDGSFFLYSKLTVDKSRWQQGNVFSCSVMHEALHNHYTQKSLSLSPGK light: EIVLTQSPATLSLSPGERATLSCSATSSVSYMHWYQQKPGQAPRRLIYDTSKLASGVPARFSGSGSGTSYTLTISSLEPEDFAVYYCQQWSSNPLTFGGGTKVEIKRTVAAPSVFIFPPSDEQLKSGTASVVCLLNNFYPREAKVQWKVDNALQSGNSQESVTEQDSKDSTYSLSSTLTLSKADYEKHKVYACEVTHQGLSSPVTKSFNRGEC

— patent US20160136299A1 (Sanofi, published 2016)
